Here are results for one molecule from patent CN110294802A.

For this assay, the target named is HAdV7灭活病毒 (human/CHN/GZ6965/2001).

For orientation: EC50 means the concentration at which the effect is half-maximal.

B1: 10G12抗体 (antibody, V domains shown)
VH: QVQLKQPGAELVRPGASVKLSCKASGYSFTNYWMHWMKQRPGQGLEWIGMIDPSDSETRLNQKFKDKATLTVDKSSSIAYMQLSSPTSEDSAVYYCARDRYDGGAWFDYWSQGTLVT
VL: DIVMTQTPLSLPVSLGDQASISCRSSQSLVHSNGNTYLHWYLQKPGQSPKLLIYKVSNRFSGVPDRFSVSGSGTDFTLKISRVEAEDLGVYFCSQSTHVPPTFGGGTKLEIK
For the molecule B1, the EC50 was 0.14 nM.
